The text below walks through data of patent publication US20150192588A1 (SAMSUNG ELECTRONICS, published 2015).

This assay concerns the target T1, human c-Met/Fc fusion protein (R&D Systems) (human, UniProt P08581 25-932).
T1 construct: Bought reagent, coated on the ELISA plate at 2 ug/mL; also called human c-Met/Fc protein; not shown: Fc part of the bought fusion protein
Briefly: ELISA, human c-Met/Fc coated at 2 ug/mL, hybridoma culture supernatant, anti-mouse IgG-HRP. As to the method:
Human c-Met/Fc fusion protein was seeded in an amount of 50 μL (2 μg/mL)/well to microtiter plates and allowed to adhere to the surface of each well. The antibody that remained unbound was removed by washing.
The hybridoma cell culture obtained in Reference Example 1.1.2 was added in an amount of 50 μL to each well of the plates and incubated for 1 hour. The cells remaining unreacted were washed out with a sufficient amount of Tris-buffered saline and Tween 20 (TBST). Goat anti-mouse IgG-horseradish peroxidase (HRP) was added to the plates and incubated for 1 hour at room temperature. The plates were washed with a sufficient amount of TBST, followed by reacting the peroxidase with a substrate (OPD). Absorbance at 450 nm was measured on an ELISA reader.
In general terms: An ELISA detects its analyte on a solid surface through an enzyme-linked reagent.

T1 sequence (P08581 25-932 limits assumed): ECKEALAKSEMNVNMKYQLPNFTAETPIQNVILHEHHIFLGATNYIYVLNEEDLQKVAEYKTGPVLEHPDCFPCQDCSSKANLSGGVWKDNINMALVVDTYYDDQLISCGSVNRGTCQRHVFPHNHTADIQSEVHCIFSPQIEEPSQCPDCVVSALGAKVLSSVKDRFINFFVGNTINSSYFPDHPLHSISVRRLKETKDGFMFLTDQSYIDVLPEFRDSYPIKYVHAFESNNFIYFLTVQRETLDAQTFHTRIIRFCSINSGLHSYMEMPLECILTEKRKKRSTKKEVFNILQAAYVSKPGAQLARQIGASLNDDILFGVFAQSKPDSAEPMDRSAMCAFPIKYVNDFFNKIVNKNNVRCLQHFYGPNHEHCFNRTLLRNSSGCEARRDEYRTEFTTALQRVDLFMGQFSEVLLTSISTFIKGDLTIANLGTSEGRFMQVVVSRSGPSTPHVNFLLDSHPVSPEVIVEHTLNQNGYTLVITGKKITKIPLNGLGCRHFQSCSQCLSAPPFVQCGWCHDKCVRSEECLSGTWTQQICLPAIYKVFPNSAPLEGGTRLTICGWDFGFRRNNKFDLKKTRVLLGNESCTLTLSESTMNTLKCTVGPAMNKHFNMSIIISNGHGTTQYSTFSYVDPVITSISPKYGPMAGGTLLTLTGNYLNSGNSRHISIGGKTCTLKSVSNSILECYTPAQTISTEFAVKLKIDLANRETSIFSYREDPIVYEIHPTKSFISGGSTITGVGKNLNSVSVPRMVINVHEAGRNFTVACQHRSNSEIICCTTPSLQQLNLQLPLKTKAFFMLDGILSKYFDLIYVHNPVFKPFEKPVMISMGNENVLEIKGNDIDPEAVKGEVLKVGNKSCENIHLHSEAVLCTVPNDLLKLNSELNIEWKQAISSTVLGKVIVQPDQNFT

B1: AbF46, mouse monoclonal antibody to c-Met (hybridoma KCLRF-BP-00220) (antibody, V domains shown)
VH: EVKLVESGGGLVQPGGSLRLSCATSGFTFTDYYMSWVRQPPGKALEWLGFIRNKANGYTTEYSASVKGRFTISRDNSQSILYLQMDTLRAEDSATYYCARDNWFAYWGQGTLVTVSA
VL: DILMTQSPSSLTVSAGEKVTMSCKSSQSLLASGNQNNYLAWHQQKPGRSPKMLIIWASTRVSGVPDRFIGSGSGTDFTLTINSVQAEDLAVYYCQQSYSAPLTFGAGTKLELK
notes: In the screening ELISA it stood as hybridoma culture supernatant; The single clone chosen by this screen produces AbF46; also called mouse antibody AbF46
Turning to B1, the binding result is recorded as “binds”.
